Data published in US20160108115 (published 2016).
Like-named read-outs stand apart in the source and are kept apart here.

T1: FcγRIIb/c (human, UniProt P31994)
T1 chain: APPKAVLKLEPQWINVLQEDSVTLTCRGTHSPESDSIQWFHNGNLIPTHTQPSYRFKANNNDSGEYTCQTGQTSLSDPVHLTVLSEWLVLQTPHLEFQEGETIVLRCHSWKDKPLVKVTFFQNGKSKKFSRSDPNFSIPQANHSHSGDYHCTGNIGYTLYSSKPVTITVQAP

T2: FcγRIIa (human, UniProt P12318)
T2 chain: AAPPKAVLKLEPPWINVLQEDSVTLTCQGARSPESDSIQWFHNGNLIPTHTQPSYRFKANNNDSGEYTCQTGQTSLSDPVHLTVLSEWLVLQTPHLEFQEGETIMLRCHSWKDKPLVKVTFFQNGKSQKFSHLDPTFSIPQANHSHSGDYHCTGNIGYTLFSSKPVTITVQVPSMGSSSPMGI

T3: mouse C5 (mouse, UniProt P06684)
T3 chain 1: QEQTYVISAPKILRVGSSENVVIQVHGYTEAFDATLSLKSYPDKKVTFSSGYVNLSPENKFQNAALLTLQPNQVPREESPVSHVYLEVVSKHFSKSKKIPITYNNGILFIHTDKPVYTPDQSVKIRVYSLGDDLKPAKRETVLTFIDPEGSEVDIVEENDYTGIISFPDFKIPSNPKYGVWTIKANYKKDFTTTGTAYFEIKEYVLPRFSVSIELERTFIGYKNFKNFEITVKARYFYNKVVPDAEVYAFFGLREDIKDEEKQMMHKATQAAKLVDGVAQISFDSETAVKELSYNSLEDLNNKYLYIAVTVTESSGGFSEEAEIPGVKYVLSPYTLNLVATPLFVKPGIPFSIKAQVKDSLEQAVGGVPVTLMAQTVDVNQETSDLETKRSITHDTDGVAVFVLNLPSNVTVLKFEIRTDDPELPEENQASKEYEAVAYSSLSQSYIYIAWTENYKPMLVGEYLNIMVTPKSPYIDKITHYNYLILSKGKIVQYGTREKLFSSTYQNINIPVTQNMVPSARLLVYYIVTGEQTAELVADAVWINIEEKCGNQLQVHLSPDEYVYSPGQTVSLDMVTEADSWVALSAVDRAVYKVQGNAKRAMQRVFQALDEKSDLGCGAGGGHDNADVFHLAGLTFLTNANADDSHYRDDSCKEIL
T3 chain 2: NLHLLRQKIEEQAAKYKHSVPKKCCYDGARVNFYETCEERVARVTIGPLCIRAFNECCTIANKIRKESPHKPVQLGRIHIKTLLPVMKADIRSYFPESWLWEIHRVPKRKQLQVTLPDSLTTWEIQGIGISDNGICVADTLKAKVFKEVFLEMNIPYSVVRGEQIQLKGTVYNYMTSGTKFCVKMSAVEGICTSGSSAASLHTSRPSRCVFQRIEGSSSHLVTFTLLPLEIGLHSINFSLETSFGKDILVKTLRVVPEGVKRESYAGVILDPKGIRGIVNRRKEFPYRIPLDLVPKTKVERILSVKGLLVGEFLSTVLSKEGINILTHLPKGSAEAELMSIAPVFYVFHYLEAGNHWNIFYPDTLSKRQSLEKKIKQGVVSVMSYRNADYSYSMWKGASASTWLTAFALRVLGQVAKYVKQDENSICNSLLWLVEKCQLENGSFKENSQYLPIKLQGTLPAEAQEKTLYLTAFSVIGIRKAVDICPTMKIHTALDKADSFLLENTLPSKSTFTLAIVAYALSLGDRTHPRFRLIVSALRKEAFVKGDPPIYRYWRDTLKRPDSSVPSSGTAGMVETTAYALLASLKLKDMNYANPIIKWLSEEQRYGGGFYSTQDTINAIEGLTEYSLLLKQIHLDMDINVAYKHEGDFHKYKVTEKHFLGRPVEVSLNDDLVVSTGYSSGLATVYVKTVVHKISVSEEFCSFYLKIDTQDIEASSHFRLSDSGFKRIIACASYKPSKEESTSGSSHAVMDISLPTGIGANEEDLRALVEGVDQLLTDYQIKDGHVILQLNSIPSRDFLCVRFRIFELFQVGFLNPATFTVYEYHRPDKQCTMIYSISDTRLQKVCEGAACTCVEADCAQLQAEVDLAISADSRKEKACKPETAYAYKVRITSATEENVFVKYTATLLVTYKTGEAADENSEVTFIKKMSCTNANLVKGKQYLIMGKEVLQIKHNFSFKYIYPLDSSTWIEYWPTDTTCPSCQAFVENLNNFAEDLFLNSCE


How the values were obtained:
human C5 [1] = molecular target: T4, human C5 (human, UniProt P01031); assay: SPR
human C5 [2] = molecular target: T4, human C5; assay: SPR; remark: listed apart in the source
FcγRIIb/c = molecular target: T1, FcγRIIb/c; assay: SPR, pH 7.4
FcγRIIa = molecular target: T2, FcγRIIa; assay: SPR, pH 7.4
mouse C5 [3] = molecular target: T3, mouse C5; assay: SPR, pH 6.0
mouse C5 [4] = molecular target: T3, mouse C5; assay: SPR, pH 7.4
mouse C5 [5] = molecular target: T3, mouse C5; assay: SPR, pH 6.0

Row | Kd (human C5 [1]) [nM] | Kd (mouse C5 [4]) [nM] | binding result (mouse C5 [5]) | Binder | also measured
1 | 0.135 | – | – | EHL004 (antibody, V domains shown) VH: QVQLVQSGAEVKKPGASVKVSCKASGYIFSNYWIQWVRQAPGQGLEWMGEILPGSGHTEYTENFKDRVTMTRDTSTSTVYMELSSLRSEDTAVYYCARYFFGSSPNWYFDVWGQGTLVTVSS VL: DIQMTQSPSSLSASVGDRVTITCGASENIYHALNWYQQKPGKAPKLLIYGATNLADGVPSRFSGSGSGTDFTLTISSLQPEDFATYYCQNVLNTPLTFGQGTKVEIK | Kd (human C5 [2]): 374 nM
2 | 1.15 | – | – | EHL046 (antibody, V domains shown) VH: QVQLVQSGAEVKKPGASVKVSCKASGHIFSNYWIQWVRQAPGQGLEWMGEIHPGSGSTEYTENFKDRVTMTRDTSTSTVYMELSSLRSEDTAVYYCARYFFGSSPNWYFDVWGQGTLVTVSS VL: DIQMTQSPSSLSASVGDRVTITCGASENIYHALNWYQQKPGKAPKLLIYGATNLADGVPSRFSGSGSGTDFTLTISSLQPEDFATYYCQNVLNTPLTFGQGTKVEIK | –
3 | – | – | – | eculizumab (full length) (antibody) chain 1: QVQLVQSGAEVKKPGASVKVSCKASGYIFSNYWIQWVRQAPGQGLEWMGEILPGSGSTEYTENFKDRVTMTRDTSTSTVYMELSSLRSEDTAVYYCARYFFGSSPNWYFDVWGQGTLVTVSSASTKGPSVFPLAPCSRSTSESTAALGCLVKDYFPEPVTVSWNSGALTSGVHTFPAVLQSSGLYSLSSVVTVPSSNFGTQTYTCNVDHKPSNTKVDKTVERKCCVECPPCPAPPVAGPSVFLFPPKPKDTLMISRTPEVTCVVVDVSQEDPEVQFNWYVDGVEVHNAKTKPREEQFNSTYRVVSVLTVLHQDWLNGKEYKCKVSNKGLPSSIEKTISKAKGQPREPQVYTLPPSQEEMTKNQVSLTCLVKGFYPSDIAVEWESNGQPENNYKTTPPVLDSDGSFFLYSRLTVDKSRWQEGNVFSCSVMHEALHNHYTQKSLSLSLGK chain 2: DIQMTQSPSSLSASVGDRVTITCGASENIYGALNWYQQKPGKAPKLLIYGATNLADGVPSRFSGSGSGTDFTLTISSLQPEDFATYYCQNVLNTPLTFGQGTKVEIKRTVAAPSVFIFPPSDEQLKSGTASVVCLLNNFYPREAKVQWKVDNALQSGNSQESVTEQDSKDSTYSLSSTLTLSKADYEKHKVYACEVTHQGLSSPVTKSFNRGEC | Kd (FcγRIIb/c): 9840 nM; Kd (FcγRIIa): 2580 nM
4 | – | 0.0952 | – | BHL011 (antibody, V domains shown) VH: QVQLQQPGAELVRPGTSVKLSCKASGYTFTSSWMHWVKQRPGQGLEWIGVIDPSDSYTNYNQKFKGKATLTVDTSSSTAYMQLSSLTSEDSAVYYCARGGGSSYNRYFDVWGTGTTVTVSS VL: NIMMTQSPSSLAVSAGEKVTMSCKSSQSVLYSSNQKNYLAWYQQKPGQSPKLLIYWASTRESGVPDRFTGSGSGTDFTLTISSVQAEDLAVYYCAQYLSSRTFGGGTKLEIKR | Kd (mouse C5 [3]): 53.6 nM
5 | – | 4.19 | no binding | BHL009 (antibody) chain 1: QVQLQQPGAELVRPGTSVKLSCKASGYTFTSSWMHWVKQRPGQGLEWIGVIDPHDSYTNYNQKFKGKATLTVDTSSSTAYMQLSSLTSEDSAVYYCARGGGSSYNRYFDVWGTGTTVTVSSASTKGPSVFPLAPCSRSTSESTAALGCLVKDYFPEPVTVSWNSGALTSGVHTFPAVLQSSGLYSLSSVVTVPSSNFGTQTYTCNVDHKPSNTKVDKTVERKCCVECPPCPAPPVAGPSVFLFPPKPKDTLMISRTPEVTCVVVDVSQEDPEVQFNWYVDGVEVHNAKTKPREEQFNSTYRVVSVLTVLHQDWLNGKEYKCKVSNKGLPSSIEKTISKAKGQPREPQVYTLPPSQEEMTKNQVSLTCLVKGFYPSDIAVEWESNGQPENNYKTTPPVLDSDGSFFLYSRLTVDKSRWQEGNVFSCSVLHEALHSHYTQKSLSLSLGK chain 2: not shown | –
6 | – | 3.49 | no binding | BHL006 (antibody) chain 1: QVQLQQPGAELVRPGTSVKLSCKASGYTFTSSWMHWVKQRPGQGLEWIGVIDPHDSYTNYNQKFKGKATLTVDTSSSTAYMQLSSLTSEDSAVYYCARGGGSSYNRYFDVWGTGTTVTVSSASTKGPSVFPLAPCSRSTSESTAALGCLVKDYFPEPVTVSWNSGALTSGVHTFPAVLQSSGLYSLSSVVTVPSSNFGTQTYTCNVDHKPSNTKVDKTVERKCCVECPPCPAPPVAGPSVFLFPPKPKDTLMISRTPEVTCVVVDVSQEDPEVQFNWYVDGVEVHNAKTKPREEQFNSTYRVVSVLTVLHQDWLNGKEYKCKVSNKGLPSSIEKTISKAKGQPREPQVYTLPPSQEEMTKNQVSLTCLVKGFYPSDIAVEWESNGQPENNYKTTPPVLDSDGSFFLYSRLTVDKSRWQEGNVFSCSVMHEALHNHYTQKSLSLSLGK chain 2: not shown | –
